How the values were obtained:
[1] = molecular target: T1, AnkB 28–965 (MBD + AI-c + AI-b) (human, UniProt Q01484-2 28-965); assay: ITC; VP-ITC MicroCal, 25 °C; proteins in 50 mM Tris-HCl pH 7.8, 1 mM DTT, 1 mM EDTA with 100 mM or 500 mM NaCl as required; who was titrated is not told; details: both partners purified
T1 construct: numbers count on: human 220 kDa AnkB NM_020977.3; also called extended MBD containing the entire linker; source: E. coli BL21 (DE3), purified (Ni2+-NTA, size exclusion)
T1 sequence (looked up): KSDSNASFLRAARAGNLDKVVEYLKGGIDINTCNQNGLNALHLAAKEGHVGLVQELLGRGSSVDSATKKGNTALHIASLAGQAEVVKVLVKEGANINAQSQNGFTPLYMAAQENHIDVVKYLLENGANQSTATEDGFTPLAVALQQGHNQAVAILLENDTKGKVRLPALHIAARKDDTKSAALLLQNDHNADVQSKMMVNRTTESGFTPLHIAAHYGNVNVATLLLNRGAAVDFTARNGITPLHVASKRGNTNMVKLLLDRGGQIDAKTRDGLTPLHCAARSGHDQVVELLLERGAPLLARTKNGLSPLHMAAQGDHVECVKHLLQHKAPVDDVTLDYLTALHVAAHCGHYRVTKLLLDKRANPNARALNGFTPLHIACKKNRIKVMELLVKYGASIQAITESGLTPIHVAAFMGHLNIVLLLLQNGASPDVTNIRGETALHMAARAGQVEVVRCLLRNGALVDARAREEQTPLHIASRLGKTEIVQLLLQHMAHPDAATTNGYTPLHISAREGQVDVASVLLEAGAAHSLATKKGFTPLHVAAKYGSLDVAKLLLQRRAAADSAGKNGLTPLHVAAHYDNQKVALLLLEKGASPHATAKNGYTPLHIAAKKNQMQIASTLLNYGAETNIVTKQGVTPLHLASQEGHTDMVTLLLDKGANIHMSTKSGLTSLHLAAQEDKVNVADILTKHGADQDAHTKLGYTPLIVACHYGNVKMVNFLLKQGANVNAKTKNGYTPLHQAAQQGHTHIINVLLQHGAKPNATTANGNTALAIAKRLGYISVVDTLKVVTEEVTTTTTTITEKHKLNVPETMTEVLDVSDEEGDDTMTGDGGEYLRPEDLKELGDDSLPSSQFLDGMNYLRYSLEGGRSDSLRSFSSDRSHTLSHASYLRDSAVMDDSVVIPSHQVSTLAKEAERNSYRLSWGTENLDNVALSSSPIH

[2] = molecular target: T2, AnkG 38–855 (AnkG MBD-AI-c protein; MBD + partial AI-c) (rat, UniProt O70511-1 38-855); assay: as above; details: both partners purified
T2 construct: numbers count on: rat AnkG NM_001033984.1 (MBD-UPA); also called AnkG WT; source: E. coli BL21 (DE3), purified (Ni2+-NTA, size exclusion)
T2 sequence (looked up): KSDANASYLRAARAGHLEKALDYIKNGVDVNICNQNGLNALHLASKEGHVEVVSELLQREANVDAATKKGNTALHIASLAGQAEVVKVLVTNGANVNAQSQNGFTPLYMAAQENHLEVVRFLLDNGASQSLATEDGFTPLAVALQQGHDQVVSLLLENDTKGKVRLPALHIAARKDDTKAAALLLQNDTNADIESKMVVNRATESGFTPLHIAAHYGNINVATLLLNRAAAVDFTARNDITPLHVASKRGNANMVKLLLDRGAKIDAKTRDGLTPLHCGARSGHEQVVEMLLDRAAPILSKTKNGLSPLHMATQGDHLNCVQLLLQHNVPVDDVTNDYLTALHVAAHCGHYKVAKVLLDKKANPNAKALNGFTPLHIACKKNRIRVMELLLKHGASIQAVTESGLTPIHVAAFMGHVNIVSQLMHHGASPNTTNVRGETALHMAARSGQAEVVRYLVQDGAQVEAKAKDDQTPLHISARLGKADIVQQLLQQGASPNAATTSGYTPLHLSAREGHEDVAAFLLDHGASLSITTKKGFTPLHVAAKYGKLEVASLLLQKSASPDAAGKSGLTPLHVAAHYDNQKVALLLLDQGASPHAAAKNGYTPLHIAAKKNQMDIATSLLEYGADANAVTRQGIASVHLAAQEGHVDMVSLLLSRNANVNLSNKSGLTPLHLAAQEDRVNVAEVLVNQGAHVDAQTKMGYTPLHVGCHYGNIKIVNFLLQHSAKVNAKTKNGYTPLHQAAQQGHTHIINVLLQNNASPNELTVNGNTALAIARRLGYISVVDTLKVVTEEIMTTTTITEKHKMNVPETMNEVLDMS

binding result [1]: binds | binding result [2]: binds
B1: Nav1.2 (aa 1035–1129) (domain or fragment, mouse, UniProt B1AWN6 1035-1129, looked up)
chain: KALDEIKPLEDLNNKKDSCISNHTTIEIGKDLNYLKDGNGTTSGIGSSVEKYVVDESDYMSFINNPSLTVTVPIAVGESDFENLNTEEFSSESDM
notes: source: E. coli BL21 (DE3), purified (Ni2+-NTA, size exclusion)

Source: article PMC5779224, “Autoinhibition of ankyrin-B/G membrane target bindings by intrinsically disordered segments from the tail regions” (eLife, 2017)
